Target: the molecule itself
Assay: SEC-MALS; Superdex 75 HR 10/30 with miniDAWN light-scattering and refractive-index detectors; 100 ul of purified tGemC1 dimer at ~2.0 mg/ml injected

B1: tGemC1^L123,130E (GemC1 coiled-coil domain variant, residues 64-146, L123E and L130E) (domain or fragment, human, UniProt A6NCL1 64-146, looked up)
chain: DSNFPLPDLCSWEEAQLSSQLYRNKQLQDTLVQKEEELARLHEENNHLRQYLNSALVKCEEEKAKKELSSDEFSKAYGKFRKG
notes: Geminin coiled-coil domain-containing protein 1 (GemC1), human, UniProt A6NCL1, residues 64-146, with L123E and L130E; codon-optimized synthetic gene; The His tag is called cleavable; also called tGemC1 homodimer; tGemC1-tGemC1; source: expressed from pETNKI-His-3CLIC-kan, purified (IMAC, size-exclusion chromatography)
- stoichiometry N: 2

— paper PMC4631479, “The structure of the GemC1 coiled coil and its interaction with the Geminin family of coiled-coil proteins” (Acta Crystallographica Section D: Biological Crystallography, 2015)
